The values below come from patent publication US20200255860, “A STRONG INSULATOR AND USES […] IN GENE DELIVERY” (CHILDREN'S HOSPITAL MEDICAL CENTER, published 2020).

Common to all, as to details: tags: full-length, Abnova; label: IRDye700 5' both strands
For series [1], the target named is T1, CTCF (Homo sapiens, UniProt P49711 P49711:1-727).
T1 sequence: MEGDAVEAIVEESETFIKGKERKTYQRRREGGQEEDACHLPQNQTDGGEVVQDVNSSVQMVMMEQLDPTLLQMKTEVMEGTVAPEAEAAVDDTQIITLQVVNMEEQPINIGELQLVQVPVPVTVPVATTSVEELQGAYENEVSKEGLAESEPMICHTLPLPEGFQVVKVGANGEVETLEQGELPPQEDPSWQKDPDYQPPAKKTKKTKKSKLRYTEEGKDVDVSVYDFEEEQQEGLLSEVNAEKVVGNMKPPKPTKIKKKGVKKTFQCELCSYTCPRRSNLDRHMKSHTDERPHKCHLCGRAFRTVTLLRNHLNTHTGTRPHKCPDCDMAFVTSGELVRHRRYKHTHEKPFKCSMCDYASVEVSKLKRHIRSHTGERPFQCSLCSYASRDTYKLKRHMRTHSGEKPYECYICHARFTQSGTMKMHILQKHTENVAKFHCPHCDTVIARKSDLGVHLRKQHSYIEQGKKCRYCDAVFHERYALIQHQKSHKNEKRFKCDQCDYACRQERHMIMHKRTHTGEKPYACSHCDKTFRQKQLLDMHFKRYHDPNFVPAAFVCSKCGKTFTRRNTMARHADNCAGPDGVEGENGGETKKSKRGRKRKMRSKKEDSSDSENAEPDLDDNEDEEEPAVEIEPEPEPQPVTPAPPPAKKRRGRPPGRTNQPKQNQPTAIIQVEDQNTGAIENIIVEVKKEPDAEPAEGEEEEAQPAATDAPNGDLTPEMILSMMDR
Description: EMSA; no LV probe bound. For orientation: A gel shift assay detects complexes by their altered migration in electrophoresis.

For series [2], the target named is T1, CTCF. Description: EMSA; 20 mM HEPES pH 7.5, 50 mM KCl, 5 mM MgCl2, 3.3 uM ZnSO4, poly(dI:dC), room temp; competed by unlabeled H19.
The target of series [3] is T1, CTCF. Briefly: EMSA; region 4 mutated, no effect.

B1: LV1 probe (dsDNA)
DNA 1: ACAAGATAGAGGAAGAGCAAAACAAAAGTAAGACCACCGCACAGCAAGCGGCCGCTGATCTTCAGACCTGGAGGAGGAGATATGAGGGA
DNA 2: TCCCTCATATCTCCTCCTCCAGGTCTGAAGATCAGCGGCCGCTTGCTGTGCGGTGGTCTTACTTTTGTTTTGCTCTTCCTCTATCTTGT
B1: the binding result in the series with CTCF [1] was “no binding”.

B2: LV2 probe (dsDNA)
DNA 1: GATACCTAAAGGATCAACAGCTCCTGGGGATTTGGGGTTGCTCTGGAAAACTCATTTGCACCACTGCTGTGCCTTGGAATGCT
DNA 2: AGCATTCCAAGGCACAGCAGTGGTGCAAATGAGTTTTCCAGAGCAACCCCAAATCCCCAGGAGCTGTTGATCCTTTAGGTATC
For the molecule B2, the binding result with CTCF [1] is recorded as “no binding”.

B3: FV2 probe (dsDNA)
DNA 1: AGTAAAAGGATTTGTATATTAGCCTTGCTAAGGGAGACATCTAGTGATATAAGTGTGAACTACACTTATCTTAAATGATG
DNA 2: CATCATTTAAGATAAGTGTAGTTCACACTTATATCACTAGATGTCTCCCTTAGCAAGGCTAATATACAAATCCTTTTACT
Turning to B3, in the series with CTCF [2], the binding result was “binds”.

B4: FV2 mutant 4 (dsDNA)
DNA 1: AGTAAAAGGATTTGTATAGGCTTTATATCAAGGGAGACATCTAGTGATATAAGTGTGAACTACACTTATCTTAAATGATG
DNA 2: CATCATTTAAGATAAGTGTAGTTCACACTTATATCACTAGATGTCTCCCTTGATATAAAGCCTATACAAATCCTTTTACT
In the case of B4, in the series with CTCF [3], the binding result is “binds”.

B5: LV3 probe (dsDNA)
DNA 1: GTCGGGGAAGCTGACGTCCTTTCGAATTCGATATCAAGCTGTACCTTTAAGACCAATGACTTACAAGGCAGCTGTAGATC
DNA 2: GATCTACAGCTGCCTTGTAAGTCATTGGTCTTAAAGGTACAGCTTGATATCGAATTCGAAAGGACGTCAGCTTCCCCGAC
Regarding B5, the binding result with CTCF [1] is given as “no binding”.
